Experimental data reported in the supplement of paper PMC9112550, “Optimization of the antimicrobial peptide Bac7 by deep mutational scanning” (BMC Biology, 2022).

test system: Escherichia coli TOP10; test: shrunken log2 fold change of peptide-encoding DNA abundance (4.5 h post-induction vs induction); higher = less antimicrobial activity (less host growth inhibition); details: time post-induction: 4.5 h; library: site-saturation at positions 5, 18, 19, 20
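Also: peptides expressed intracellularly from a pBAD plasmid library in pooled LB shake-flask culture, induced with 0.3% L-arabinose, DNA abundance read by NGS, three biological replicates, DESeq2 with apeglm shrinkage.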

Sequence | shrunken log2 fold change
RRIRVRPPRLPRPRPRPNHGPRP | -0.0115
RRIRVRPPRLPRPRPRPNHWPRP | 0.203
RRIRVRPPRLPRPRPRPNIQPRP | -0.121
RRIRVRPPRLPRPRPRPNLIPRP | -0.149
RRIRVRPPRLPRPRPRPNMSPRP | -0.537
RRIRVRPPRLPRPRPRPNNQPRP | -0.483
RRIRVRPPRLPRPRPRPNPDPRP | -0.0161
RRIRVRPPRLPRPRPRPNPQPRP | 0.000771
RRIRVRPPRLPRPRPRPNQQPRP | 0.0476
RRIRVRPPRLPRPRPRPNRKPRP | -0.0231
RRIRVRPPRLPRPRPRPNRLPRP | 0.0105
RRIRVRPPRLPRPRPRPNTKPRP | 0.181
RRIRVRPPRLPRPRPRPNWVPRP | 0.213
RRIRVRPPRLPRPRPRPPAEPRP | 0.253
RRIRVRPPRLPRPRPRPPALPRP | 0.189
RRIRVRPPRLPRPRPRPPAVPRP | 0.523
RRIRVRPPRLPRPRPRPPDHPRP | 0.271
RRIRVRPPRLPRPRPRPPDNPRP | -0.00642
RRIRVRPPRLPRPRPRPPDTPRP | 0.166
RRIRVRPPRLPRPRPRPPFLPRP | 1.11
RRIRVRPPRLPRPRPRPPFNPRP | -0.303
RRIRVRPPRLPRPRPRPPFRPRP | 0.421
RRIRVRPPRLPRPRPRPPFSPRP | 0.15
RRIRVRPPRLPRPRPRPPGHPRP | 0.246
RRIRVRPPRLPRPRPRPPGNPRP | 0.17

Sequence | shrunken log2 fold change
RRIRVRPPRLPRPRPRPPHNPRP | 0.154
RRIRVRPPRLPRPRPRPPIHPRP | 0.042
RRIRVRPPRLPRPRPRPPIPPRP | 0.242
RRIRVRPPRLPRPRPRPPIRPRP | -0.0403
RRIRVRPPRLPRPRPRPPKDPRP | 0.219
RRIRVRPPRLPRPRPRPPKWPRP | 0.133
RRIRVRPPRLPRPRPRPPLGPRP | 0.554
RRIRVRPPRLPRPRPRPPLPPRP | 0.325
RRIRVRPPRLPRPRPRPPQWPRP | 0.353
RRIRVRPPRLPRPRPRPPRMPRP | 0.167
RRIRVRPPRLPRPRPRPPSCPRP | 0.187
RRIRVRPPRLPRPRPRPPVWPRP | 0.312
RRIRVRPPRLPRPRPRPPWQPRP | 0.44
RRIRVRPPRLPRPRPRPPYGPRP | 0.024
RRIRVRPPRLPRPRPRPQAAPRP | 0.0662
RRIRVRPPRLPRPRPRPQAWPRP | 0.416
RRIRVRPPRLPRPRPRPQCQPRP | 0.148
RRIRVRPPRLPRPRPRPQDWPRP | -0.132
RRIRVRPPRLPRPRPRPQEDPRP | -0.467
RRIRVRPPRLPRPRPRPQFDPRP | -0.00843
RRIRVRPPRLPRPRPRPQFHPRP | -0.186
RRIRVRPPRLPRPRPRPQGPPRP | 0.107
RRIRVRPPRLPRPRPRPQHGPRP | 0.14
RRIRVRPPRLPRPRPRPQHIPRP | -0.32
RRIRVRPPRLPRPRPRPQHVPRP | -0.0853

Sequence | shrunken log2 fold change
RRIRVRPPRLPRPRPRPQIDPRP | -0.321
RRIRVRPPRLPRPRPRPQLCPRP | -0.143
RRIRVRPPRLPRPRPRPQMMPRP | -0.0693
RRIRVRPPRLPRPRPRPQNQPRP | -0.388
RRIRVRPPRLPRPRPRPQNRPRP | 0.112
RRIRVRPPRLPRPRPRPQPWPRP | 0.152
RRIRVRPPRLPRPRPRPQQIPRP | -0.119
RRIRVRPPRLPRPRPRPQQRPRP | 0.0774
RRIRVRPPRLPRPRPRPQRAPRP | 0.348
RRIRVRPPRLPRPRPRPQSIPRP | -0.176
RRIRVRPPRLPRPRPRPQTWPRP | -0.148
RRIRVRPPRLPRPRPRPQVKPRP | -0.016
RRIRVRPPRLPRPRPRPQVVPRP | -0.00557
RRIRVRPPRLPRPRPRPQYSPRP | 0.0315
RRIRVRPPRLPRPRPRPRAAPRP | 0.425
RRIRVRPPRLPRPRPRPRALPRP | 0.307
RRIRVRPPRLPRPRPRPRDLPRP | 0.0448
RRIRVRPPRLPRPRPRPRFAPRP | 0.527
RRIRVRPPRLPRPRPRPRGIPRP | 0.235
RRIRVRPPRLPRPRPRPRGVPRP | 0.278
RRIRVRPPRLPRPRPRPRHAPRP | 0.229
RRIRVRPPRLPRPRPRPRHIPRP | -0.508
RRIRVRPPRLPRPRPRPRHLPRP | -0.222
RRIRVRPPRLPRPRPRPRHMPRP | 0.152
RRIRVRPPRLPRPRPRPRHSPRP | 0.292
